B1: Kel2-DBD (natural protein, S. cerevisiae, UniProt P50090 1-882, looked up)
chain: MVPFKLTNKVPTDTGPSLISAQSVPRPIVFMDNRNNTRIVTPTLPPNQHRGISGASTALPWSPESKNTGKYIWNRVKLKNSPFPRYRHSSSFIVTNDNRIFVTGGLHDQSVYGDVWQIAANADGTSFTSKRIDIDQNTPPPRVGHASTICGNAYVVFGGDTHKLNKNGLLDDDLYLFNINSYKWTIPQPIGRRPLGRYGHKISIIASNPMQTKLYLFGGQVDETYFNDLVVFDLSSFRRPNSHWEFLEPVGDLPPPLTNHTMVAYDNKLWVFGGETPKTISNDTYRYDPAQSEWSKVKTTGEKPPPIQEHASVVYKHLMCVLGGKDTHNAYSNDVYFLNLLSLKWYKLPRMKEGIPQERSGHSLTLMKNEKLLIMGGDKTDYASPNIHDLQTSETDQGEGTLLYTLDLSSLNELCPGIMCESLHAGESFSNSLSGGFTPSKSTESENQEIINILTPRLPDSKVLSYNDIDEGAGSYSSALDDKAFERKSDREEKKPQSSKVDSSINKESPGTGIKVSKKNFPVLRGLTVDSEEYGSSSYKDTSCQKGIPKNLFDDLNLNLQTLRLEAQQKELETARHISQLEKEVQRLMVIKEASKDSNFQTARLKNLEIQKTFLESRINDLKNLLMVKLSQASKLCDQITIQNNGLKTCSEHVTIKRDIIDLENKCDVLKRQNEILVNNMQKITPELHTYLNESSCYLGKLLKSYPTSARPPSSEKDNQIYEKDSLNKIEKVINEMHETVRAKEKLHLETQKLNDERDSLRANLLDNNNKLDALRKLSDGSSKSMDLTKKAIHLSQSELEKYRKNNDDLQKEIDRIKTEQAEQDDKQEQRGAITHGNFDAFHRMKINNLKAELYMSKENRDSLKDELLALKKKLYTLEQKK

Tests used:
two-hybrid = molecular target: the molecule itself; assay: two-hybrid
Kel2-DBD = molecular target: B1; assay: two-hybrid

| fold increase of β-galactosidase activity against Kel1-AD or Kel2-DBD alone (Kel2-DBD) | Binder | interaction relative to that of Kel1p-AD with Kel2-DBD (two-hybrid) |
| --- | --- | --- |
| – | B1 | ~10% |
| > 100 fold | Kel1-AD (natural protein, S. cerevisiae, UniProt P38853 1-1164, looked up) MAGFSFAKKFTHKKHGKTPSDASISDQSREASLSTPPNEKFFTKQETPQKGRQFSQGYHSNVNKTSSPPMFARKQVSESRIQPSAVPPQQRNVSGPSTTLHKQLSKQREYTVWNRIKLQNSPFPRYRHVASAYVTDKNQIYVIGGLHDQSVYGDTWILTAFDNATRFSTTTIDISEATPPPRVGHAAVLCGNAFVVFGGDTHKVNKEGLMDDDIYLLNINSYKWTVPAPVGPRPLGRYGHKISIIATTQMKTKLYVFGGQFDDTYFNDLAVYDLSSFRRPDSHWEFLKPRTFTPPPITNFTMISYDSKLWVFGGDTLQGLVNDVFMYDPAINDWFIIDTTGEKPPPVQEHATVVYNDLMCVVGGKDEHDAYLNSVYFLNLKSRKWFKLPVFTAGIPQGRSGHSLTLLKNDKILIMGGDKFDYARVEEYDLHTSDIDMQRGTIVYTLDLARIKDLCPGVMDVPTDTPTPRNGNLDLATPVTPTSHQTKNMNVPISAAPLASAPSPAPKDFSDADRLNREVHNRNVSTEHQNQSHPVNSESHLIAEPNILTPYVPSESSQTPVMKITSNKPFDTPTIQKEPDLSETMDPTVGNQRIPSSIYGDNLTPANQIKNNSPILETLPSNEIKTPQNGNIEEIKHLPDADEKIDSTTTFDQEINGDKLGTSSMSKVEEDGNVADEDDEIGVAQMASSPSKDQFKIKHYNESSELSQNNTEIDKLSEPVDITIKKSDTAGHDSANHVIDASDEKNVSPMGDVPTDTKNEEASVPINRDATTEVVDRALFEKLRSELQSLKELTHEKALEAGAHIKELETELWQLKSQKNSGTTKEIDELDSVRLQSKCEILEADNHSLEDKVNELEELVNSKFLDIENLNEVIQFQNEKIKSLELEPNYKEKLEELQIEHENLSRENERLKNESKQHNEDIINNVANYSSQLGSLISHWKENRANSSFLESSSSLISVSDENGEKTVGEPYGDQSRHHRVVINKLTNRLDDLLERSQELTISKEKLSSEYHALKMEHSSLSQDVLVKENEIKKIQNDYKESISSMDSASKALMVSQRELEKYKSLNKKLIDELDELKFKNGVCSENFENGLRSTEESSNNVKNSNSIRENQFNIKINDLKAELFITNQERDDLKSEVLELKKRLLNLENNTKQVNEDADSDLL | – |

Reference: paper PMC2132843 (The Journal of Cell Biology, 1998)
